Assay results as given in the supplement of paper PMC10567573.

B1: KRT34 (parent)
chain: PTVDLNQVLNETRSQYEALVETNR

Variants of: B1
Assay: protein stability index of a GFP-peptide fusion (GPS, HEK-293T) (PSI 1-6); higher = more stable
Settings: c terminus: a fixed tail appended
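Further: lentivirally expressed fusions sorted by FACS into six bins by GFP to DsRed ratio, PSI derived from sequencing read proportions per bin multiplied by bin number.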

In order of falling protein stability index:
1. PTVDLNQVDNETRSQYEALVETNR [L9D]  5.55
2. PTVDLNQVLNETRSQREALVETNR [Y16R]  5.42
3. PTVDLNQVLNEDRSQYEALVETNR [T12D]  5.22
4. PTVDLNQVLNETRSQYEAKVETNR [L19K]  5.17
5. PTVDLNQVLNETRSQYEADVETNR [L19D]  5.03
6. PTVDLNQVLNETRSQYEANVETNR [L19N]  5.01
7. PTVDLNQVLNETRSQNEALVETNR [Y16N]  4.99
8. PTVDLNQVLNETRSQSEALVETNR [Y16S]  4.98
9. PTVDLNQVLNETRSQYEALPETNR [V20P]  4.91
10. PTVDLNQVLNETRSQYEALRETNR [V20R]  4.9
11. PTVDLNQVLNETRSQYEALKETNR [V20K]  4.86
12. PTVDLNQVLNETRSQYEPLVETNR [A18P]  4.6
13. PTVDLNQVLNETRSQTEALVETNR [Y16T]  4.58
14. PTVDLNQVENETRSQYEALVETNR [L9E]  4.52
15. PTVDLNQVLNETRSQYEALQETNR [V20Q]  4.5
16. PTVDLNQVLNETRSQYEALNETNR [V20N]  4.42
17. PTVDLNQVLNETRSQYEAYVETNR [L19Y]  4.39
18. PTVDLNQVLNEGRSQYEALVETNR [T12G]  4.39
19. PTVDLNQVLNETRSQYEALVETNK [R24K]  4.32
20. PTVDLNQVLNETRSQYEALVQTNR [E21Q]  4.3
21. PTVDLNQVVNETRSQYEALVETNR [L9V]  4.28
22. PTVDLNQVLNERRSQYEALVETNR [T12R]  4.28
23. PTVDLNQVLNHTRSQYEALVETNR [E11H]  4.18
24. PTVDLNQVLNETRSQYEALVETNG [R24G]  4.17
25. PTVDLNQVLNETRSEYEALVETNR [Q15E]  4.16
26. DTVDLNQVLNETRSQYEALVETNR [P1D]  4.12
27. PTVDLNQVLNETRPQYEALVETNR [S14P]  4.1
28. PTVDLNQVANETRSQYEALVETNR [L9A]  4.09
29. PTVDLNQVLNETRSQYEALYETNR [V20Y]  4.09
30. PTVDLNQVLNETRSQYNALVETNR [E17N]  4.05
31. PTVDLNQVWNETRSQYEALVETNR [L9W]  4.04
32. PTVDLNQVLNETRSQYEALLETNR [V20L]  4.04
33. PTVDLNQVLNETRSQYEGLVETNR [A18G]  4.03
34. PTVDLNQVLNENRSQYEALVETNR [T12N]  4.03
35. PTVDLNQVLNETRSNYEALVETNR [Q15N]  4.02
36. PTVDLNQVLNEKRSQYEALVETNR [T12K]  4
37. PTVDLNQVLNQTRSQYEALVETNR [E11Q]  3.93
38. PTVDLNNVLNETRSQYEALVETNR [Q7N]  3.92
39. PTVDLNQVLNETRSQYEALVMTNR [E21M]  3.92
40. PTVDLRQVLNETRSQYEALVETNR [N6R]  3.9
41. PTVDLNQVLNETRSQYRALVETNR [E17R]  3.83
42. KTVDLNQVLNETRSQYEALVETNR [P1K]  3.83
43. PTVDLGQVLNETRSQYEALVETNR [N6G]  3.79
44. PTVDLNQVLNKTRSQYEALVETNR [E11K]  3.79
45. PTVDLNQVLNETRSQYAALVETNR [E17A]  3.77
46. QTVDLNQVLNETRSQYEALVETNR [P1Q]  3.77
47. PTVDLNQVLNETRSQYVALVETNR [E17V]  3.7
48. PTVDLNQVLNETRSQYMALVETNR [E17M]  3.68
49. PTVDLNYVLNETRSQYEALVETNR [Q7Y]  3.65
50. PTVDLNQVLNETRSQWEALVETNR [Y16W]  3.63
51. PTVDLNQVLNETRSQYPALVETNR [E17P]  3.62
52. PTVDLNQVLNETRSQYEALVYTNR [E21Y]  3.62
53. PTVDLNQVYNETRSQYEALVETNR [L9Y]  3.61
54. PTVDLNFVLNETRSQYEALVETNR [Q7F]  3.61
55. PTVDLNQVLNESRSQYEALVETNR [T12S]  3.54
56. PTVDLNQVLNETRSQYEALVETNA [R24A]  3.51
57. PTVDLNQVLNETRSQYEAFVETNR [L19F]  3.51
58. PTVDLNQVLNETRSQYEWLVETNR [A18W]  3.5
59. ATVDLNQVLNETRSQYEALVETNR [P1A]  3.41
60. PTVDLNQVQNETRSQYEALVETNR [L9Q]  3.36
61. PTVDLNQVLNLTRSQYEALVETNR [E11L]  3.36
62. PTVDLNQVLNETRSQYWALVETNR [E17W]  3.35
63. PTVDLNQVLNETRYQYEALVETNR [S14Y]  3.33
64. PTVDLNQVLNETRSQYENLVETNR [A18N]  3.3
65. PTVDLNQVLNETRFQYEALVETNR [S14F]  3.3
66. PTVDLNQVLNETRSQYEALVITNR [E21I]  3.23
67. PTVDLNQVLNETRSQYYALVETNR [E17Y]  3.22
68. NTVDLNQVLNETRSQYEALVETNR [P1N]  3.21
69. PTVDLNQVLNWTRSQYEALVETNR [E11W]  3.15
70. PTVDLNQVLNETRSQYEALVETNI [R24I]  3.11
71. PTVDLNWVLNETRSQYEALVETNR [Q7W]  3.08
72. PTVDLNQVLNETRSQYFALVETNR [E17F]  3.08
73. PTVDLNQVLNETRSIYEALVETNR [Q15I]  2.96
74. PTVDLNQVLNETRTQYEALVETNR [S14T]  2.96
75. PTVDLHQVLNETRSQYEALVETNR [N6H]  2.92
76. PTVDLNQVLNETRVQYEALVETNR [S14V]  2.82
77. ETVDLNQVLNETRSQYEALVETNR [P1E]  2.82
78. PTVDLNQVLNETRSQYIALVETNR [E17I]  2.71
79. PTVDLQQVLNETRSQYEALVETNR [N6Q]  2.56
80. PTVDLCQVLNETRSQYEALVETNR [N6C]  2.51
81. PTVDLNQVLNETRKQYEALVETNR [S14K]  2.47
82. PTVDLFQVLNETRSQYEALVETNR [N6F]  2.42
83. PTVDLNQVLNETRQQYEALVETNR [S14Q]  2.34
84. PTVDLNQVLNETRSQYERLVETNR [A18R]  2.31
85. PTVDLNQVLNETRSQYEALVETNY [R24Y]  2.29
86. PTVDLNQVLNETREQYEALVETNR [S14E]  2.23
87. PTVDLNQVLNEQRSQYEALVETNR [T12Q]  2.21
88. PTVDLNQVLNETRSQYEALVETNV [R24V]  2.17
89. PTVDLLQVLNETRSQYEALVETNR [N6L]  2.14
90. PTVDLNQVLNETRAQYEALVETNR [S14A]  2.09
91. PTVDLVQVLNETRSQYEALVETNR [N6V]  2
92. PTVDLMQVLNETRSQYEALVETNR [N6M]  1.9
93. PTVDLNQVLNEARSQYEALVETNR [T12A]  1.8
94. PTVDLYQVLNETRSQYEALVETNR [N6Y]  1.71
